Reference: EP2974737A1 (Ablynx N.V., dated 2016)
Substitutions are numbered along the chain they refer to. Blank lines part the entries; values can stand above or below the binder they belong to.

Legend:
Test in all cases: SPR, interference factor immobilized; % of Fig. 9 reference
[1] = target: T1, purified interference factor(s) from Donor C (human)
T1 construct: the text names the donors 8, 19 and 30; also called interference in serum from Donor C

[2] = target: T2, purified interference factor(s) from Donor A (human)
T2 construct: also called interference in serum from Donor A

[3] = target: T3, purified interference factor(s) from Donor B (human)
T3 construct: the text names the donors 8, 19 and 30; also called interference in serum from Donor B

B1: SEQ ID NO: 85 (VHH)
VHH: EVQLVESGGGSVQPGGSLRLSCAASRSIGRLDRMGWYRHRPGEPRELVATITGGSSINYGDSVKGRFTISIDNSKNTVYLQMNSLRPEDTAVYYCNFNKYVTSRDTWGQGTLVQVGG
interference binding, % of Reference Sequence [1]: 42%
interference binding, % of Reference Sequence [2]: 46%
interference binding, % of Reference Sequence [3]: 5%

B2: SEQ ID NO: 89 (VHH)
VHH: B1 VHH with P14A
interference binding, % of Reference Sequence [1]: 17%
interference binding, % of Reference Sequence [2]: 14%
interference binding, % of Reference Sequence [3]: 5%

B3: SEQ ID NO: 88 (VHH)
VHH: B1 VHH with G116S, G117S
interference binding, % of Reference Sequence [1]: 11%
interference binding, % of Reference Sequence [2]: 1%
interference binding, % of Reference Sequence [3]: 5%

Second part, the binder after the results:

interference binding, % of Reference Sequence [1]: 39%
interference binding, % of Reference Sequence [2]: 51%
interference binding, % of Reference Sequence [3]: 5%
B4: SEQ ID NO: 87 (VHH)
VHH: B1 VHH with Q114T

interference binding, % of Reference Sequence [1]: 86%
interference binding, % of Reference Sequence [2]: 76%
interference binding, % of Reference Sequence [3]: 6%
B5: SEQ ID NO: 86 (VHH)
VHH: B1 VHH with G116S, G117S
